Reference: patent US11104673B2, “Quaternary amine compounds and antibody-drug conjugates thereof” (priority 2014, dated 2021)

Assays:
BJAB = experiment: In vitro cell proliferation assay, ADC killing of BJAB cells; format: cell-based, human
NCI-H441 = experiment: EdU Prolif assay, NCI-H441; format: cell-based; details: NCI-H441 cells
WSU-DLCL2 = experiment: In vitro cell proliferation assay, ADC killing of WSU-DLCL2 cells; format: cell-based, human
Jurkat = experiment: In vitro cell proliferation assay, ADC killing of Jurkat cells; format: cell-based

B1: ADC1-1: Anti-Napi2b 10H1.11.4B LC K149C antibody conjugated with the Example 1 linker-drug MC-Sq-Cit-PAB Dolastatin 10 (conjugate)
VH: EVQLVESGGGLVQPGGSLRLSCAASGFSFSDFAMSWVRQAPGKGLEWVATIGRVAFHTYYPDSMKGRFTISRDNSKNTLYLQMNSLRAEDTAVYYCARHRGFDVGHFDFWGQGTLVTVSS
VL: DIQMTQSPSSLSASVGDRVTITCRSSETLVHSSGNTYLEWYQQKPGKAPKLLIYRVSNRFSGVPSRFSGSGSGTDFTLTISSLQPEDFATYYCFQGSFNPLTFGQGTKVEIKR
With B1 as the molecule, how does the “BJAB IC50” value (BJAB) read?
Its value is >20 µg/mL.

What about the IC50 (BJAB) of the same molecule?
Its IC50 is > 133 nM.

What about the IC50 (NCI-H441) of the same molecule?
The IC50 was 95.4 nM.

And the “NCI-H441 IC50” value (NCI-H441)?
Its value is 14.31 µg/mL.

What about the IC50 (WSU-DLCL2) of the same molecule?
The IC50 was 44.2 nM.

What about the “WSU-DLCL2 IC50” value (WSU-DLCL2) of the same molecule?
Its value is 6.63 µg/mL.

What about the IC50 (Jurkat) of the same molecule?
Its IC50 is 73.6 nM.

What about the “Jurkat IC50” value (Jurkat) of the same molecule?
Its value is 11.04 µg/mL.
